# From patent publication US10772928B2, “Modulation and detection of a neuronal alternative splicing regulatory network for treatment and diagnosis of neurological disorders” (The Governing Council of the University of Toronto, priority 2014, dated 2020)
# T1: nSR100 (Mus musculus, UniProt Q8BKA3)
# T1 construct: host or cells: mouse N2A cells
# T1 sequence (Q8BKA3 1-608): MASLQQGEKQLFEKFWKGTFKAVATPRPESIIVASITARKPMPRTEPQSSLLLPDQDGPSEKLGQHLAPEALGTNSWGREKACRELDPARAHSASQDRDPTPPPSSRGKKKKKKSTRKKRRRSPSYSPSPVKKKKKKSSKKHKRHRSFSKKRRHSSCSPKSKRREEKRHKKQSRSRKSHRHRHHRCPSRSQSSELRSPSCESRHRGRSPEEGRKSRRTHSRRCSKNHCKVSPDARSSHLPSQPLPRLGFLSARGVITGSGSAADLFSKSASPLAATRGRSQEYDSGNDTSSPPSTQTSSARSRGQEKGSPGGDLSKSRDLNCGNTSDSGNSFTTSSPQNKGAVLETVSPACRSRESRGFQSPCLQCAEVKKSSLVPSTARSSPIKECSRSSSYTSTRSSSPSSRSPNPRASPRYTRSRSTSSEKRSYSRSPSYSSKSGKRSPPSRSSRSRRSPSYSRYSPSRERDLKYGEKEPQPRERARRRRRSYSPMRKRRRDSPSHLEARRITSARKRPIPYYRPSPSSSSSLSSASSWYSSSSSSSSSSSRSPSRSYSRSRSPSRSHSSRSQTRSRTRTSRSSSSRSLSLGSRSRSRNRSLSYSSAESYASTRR
# B1: Rbm25 (protein, UniProt B2RY56 1-838, looked up)
# RNA-binding protein 25: MSFPPHLNRPPMGIPALPPGIPPPQFPGFPPPVPPGTPMIPVPMSIMAPAPTVLVPTVSMVGKHLGARKDHPGLKLKENDENCGPTTTVFVGNISEKASDMLIRQLLAKCGLVLSWKRVQGASGKLQAFGFCEYKEPESTLRALRLLHDLQIGEKKLLVKVDAKTKAQLDEWKAKKKANGNARPETVTNDDEEALDEETKRRDQMIKGAIEVLIREYSSELNAPSQESDSHPRKKKKEKKEDIFRRFPVAPLIPYPLITKEDINAIEMEEDKRDLISREISKFRDTHKKLEEEKGKKEKERQEIEKERRERERERERERERREREREREREREREKEKERERERERDRDRDRTKERDRDRERDRDRDRERSSDRNKDRSRSREKSRDREREREREREREREREREREREREREREREREREKDKKRDREEDEEDAYERRKLERKLREKEAAYQERLKNWEIRERKKTREYEKEAEREEERRREMAKEAKRLKEFLEDYDDDRDDPKYYRGSALQKRLRDREKEMEADERDRKREKEELEEIRQRLLAEGHPDPDAELQRMEQEAERRRQPQIKQEPESEEEEEEKQEKEEKREEPVEEEEEPEQKPCLKPTLRPISSAPSVSSASGNATPNTPGDESPCGIIIPHENSPDQQQPEEHRPKIGLSLKLGASNSPGQPNSVKRKKLPVDSVFNKFEDEDSDDVPRKRKLVPLDYGEDDKNATKGTVNTEEKRKHIKSLIEKIPTAKPELFAYPLDWSIVDSILMERRIRPWINKKIIEYIGEEEATLVDFVCSKVMAHSSPQSILDDVAMVLDEEAEVFIVKMWRLLIYETEAKKIGLVK
# B2: Sf3a1 (protein, UniProt Q8K4Z5 1-791, looked up)
# Splicing factor 3A subunit 1: MQAGPVQAVPPPPPVATESKQPIEEEASSKEDPTPSKPVVGIIYPPPEVRNIVDKTASFVARNGPEFEARIRQNEINNPKFNFLNPNDPYHAYYRHKVSEFKEGKAQEPSAAIPKVMQQQQQATQQQLPQKVQAQVIQETIVPKEPPPEFEFIADPPSISAFDLDVVKLTAQFVARNGRQFLTQLMQKEQRNYQFDFLRPQHSLFNYFTKLVEQYTKILIPPKGLFSKLKKEAENPREVLDQVCYRVEWAKFQERERKKEEEEKEKERVAYAQIDWHDFVVVETVDFQPNEQGNFPPPTTPEELGARILIQERYEKFGESEEVEMEVESDEEDQEKAEETPSQLDQDTQVQDMDEGSDDEEEGQKVPPPPETPMPPPLPPTPDQVIVRKDYDPKASKPLPPAPAPDEYLVSPITGEKIPASKMQEHMRIGLLDPRWLEQRDRSIREKQSDDEVYAPGLDIESSLKQLAERRTDIFGVEETAIGKKIGEEEIQKPEEKVTWDGHSGSMARTQQAAQANITLQEQIEAIHKAKGLVPEDDTKEKIGPSKPNEIPQQPPPPSSATNIPSSAPPITSVPRPPAMPPPVRTTVVSAVPVMPRPPMASVVRLPPGSVIAPMPPIIHAPRINVVPMPPAAPPIMAPRPPPMIVPTAFVPAPPVAPVPAPAPMPPVHPPPPMEDEPPSKKLKTEDSLMPEEEFLRRNKGPVSIKVQVPNMQDKTEWKLNGQGLVFTLPLTDQVSVIKVKIHEATGMPAGKQKLQYEGIFIKDSNSLAYYNMASGAVIHLALKERGGRKK
# Biological target: T1, nSR100
# Assay: AP-MS nSR100 interaction partners from mouse N2A cells (Table 5)
# Format: binding
# Conditions: for AvgP (average of the SAINT scores) / MaxP (maximal SAINT score): bait Srrm4; for FoldChange between the prey Avg spectra of the bait and control purifications: bait Srrm4, 0.1 added to prevent division by 0; for AvgSpec (average number of spectra per replicate): bait Srrm4, 2 replicates; for Spectra (number of spectra for the prey in the purification of the bait): AP-MS; for SpecSum: bait Srrm4, sum of spectra over 2 replicates
# [1] = bait Srrm4, biological replicate 1 (first number of the cell)
# [2] = bait Srrm4, biological replicate 2 (second number of the cell)
# Source text: By applying affinity purification coupled to mass-spectrometry (AP-MS), several interaction nSR100 partner proteins were detected that provide insight into mechanisms of post-translational regulation of nSR100 levels.
Molecule,AvgP (average of the SAINT scores),MaxP (maximal SAINT score),FoldChange between the prey Avg spectra of the bait and control purifications,AvgSpec (average number of spectra per replicate),Spectra (number of spectra for the prey in the purification of the bait) [1],Spectra (number of spectra for the prey in the purification of the bait) [2],SpecSum
B1,1,1,180,18,16,20,36
B2,1,1,8.33,25,20,30,50
